Target: vascular endothelial growth factor (VEGF) (human) (UniProt P15692)
Assay: cell-based or functional assay

UniProt P15692, sequence (P15692 other isoform, or with tags, fused parts or gaps limits assumed): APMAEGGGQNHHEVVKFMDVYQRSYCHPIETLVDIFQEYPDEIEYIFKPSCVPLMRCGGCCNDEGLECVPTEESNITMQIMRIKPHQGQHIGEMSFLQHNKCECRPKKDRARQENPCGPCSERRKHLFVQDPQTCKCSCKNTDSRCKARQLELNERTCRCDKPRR

## KH903 (Fc fusion)
  viability of HUVECs 72 h after infection with 30 MOI dE1-k35/KH903 (MTT assay), decrease against non-treated group: 53%
